Molecular target: HER2 receptor (human (endogenous in SKBR3)) (UniProt P04626)
Test: BLI

Thiomab Tras-LC-V205C was tested, and the Kd was 1 nM.
